Assay results as given in PMC7367873, “Dissecting the sequence determinants for dephosphorylation by the catalytic subunits of phosphatases PP1 and PP2A” (Nature Communications, 2020).

Tests used:
[1] = system: GFP-14-3-3β and its binding proteins; test: GFP-14-3-3β co-IP with LC-MS/MS label-free quantification, untreated versus PP1c-treated; set-up: species or system human; details: 3 replicates each
[2] = system: GFP-14-3-3β; test: GFP-14-3-3β co-IP with LC-MS/MS, untreated GFP-14-3-3β versus GFP control (14-3-3 interactome); type: binding, human; details: 3 replicates each
[3] = PP1 vs untreated, LFQ intensities
[4] = untreated vs GFP, LFQ intensities

Molecule	Difference (log2), PP1 vs untreated [1, 3] [log2]	Difference (log2), PP1 vs untreated ([1]; log2 difference, pairwise comparison PP1 vs untreated, label-free quantification)	Difference (log2), untreated vs GFP [2, 4] [log2]	Difference (log2), untreated vs GFP ([2]; log2 difference, pairwise comparison untreated vs GFP, label-free quantification)
PNPLA6 (protein, UniProt Q8IY17 1-1375, looked up) Patatin-like phospholipase …: MEAPLQTGMMGTSSHGLATNSSGAKVAERDGFQDVLAPGEGSAGRICGAQPVPFVPQVLGVMIGAGVAVVVTAVLILLVVRRLRVPKTPAPDGPRYRFRKRDKVLFYGRKIMRKVSQSTSSLVDTSVSATSRPRMRKKLKMLNIAKKILRIQKETPTLQRKEPPPAVLEADLTEGDLANSHLPSEVLYMLKNVRVLGHFEKPLFLELCRHMVFQRLGQGDYVFRPGQPDASIYVVQDGLLELCLPGPDGKECVVKEVVPGDSVNSLLSILDVITGHQHPQRTVSARAARDSTVLRLPVEAFSAVFTKYPESLVRVVQIIMVRLQRVTFLALHNYLGLTNELFSHEIQPLRLFPSPGLPTRTSPVRGSKRMVSTSATDEPRETPGRPPDPTGAPLPGPTGDPVKPTSLETPSAPLLSRCVSMPGDISGLQGGPRSDFDMAYERGRISVSLQEEASGGSLAAPARTPTQEPREQPAGACEYSYCEDESATGGCPFGPYQGRQTSSIFEAAKQELAKLMRIEDPSLLNSRVLLHHAKAGTIIARQGDQDVSLHFVLWGCLHVYQRMIDKAEDVCLFVAQPGELVGQLAVLTGEPLIFTLRAQRDCTFLRISKSDFYEIMRAQPSVVLSAAHTVAARMSPFVRQMDFAIDWTAVEAGRALYRQGDRSDCTYIVLNGRLRSVIQRGSGKKELVGEYGRGDLIGVVEALTRQPRATTVHAVRDTELAKLPEGTLGHIKRRYPQVVTRLIHLLSQKILGNLQQLQGPFPAGSGLGVPPHSELTNPASNLATVAILPVCAEVPMVAFTLELQHALQAIGPTLLLNSDIIRARLGASALDSIQEFRLSGWLAQQEDAHRIVLYQTDASLTPWTVRCLRQADCILIVGLGDQEPTLGQLEQMLENTAVRALKQLVLLHREEGAGPTRTVEWLNMRSWCSGHLHLRCPRRLFSRRSPAKLHELYEKVFSRRADRHSDFSRLARVLTGNTIALVLGGGGARGCSHIGVLKALEEAGVPVDLVGGTSIGSFIGALYAEERSASRTKQRAREWAKSMTSVLEPVLDLTYPVTSMFTGSAFNRSIHRVFQDKQIEDLWLPYFNVTTDITASAMRVHKDGSLWRYVRASMTLSGYLPPLCDPKDGHLLMDGGYINNLPADIARSMGAKTVIAIDVGSQDETDLSTYGDSLSGWWLLWKRLNPWADKVKVPDMAEIQSRLAYVSCVRQLEVVKSSSYCEYLRPPIDCFKTMDFGKFDQIYDVGYQYGKAVFGGWSRGNVIEKMLTDRRSTDLNESRRADVLAFPSSGFTDLAEIVSRIEPPTSYVSDGCADGEESDCLTEYEEDAGPDCSRDEGGSPEGASPSTASEMEEEKSILRQRRCLPQEPPGSATDA	0.7127	–	1.692	–
MOV10 (protein, UniProt Q9HCE1 1-1003, looked up) Helicase MOV-10: MPSKFSCRQLREAGQCFESFLVVRGLDMETDRERLRTIYNRDFKISFGTPAPGFSSMLYGMKIANLAYVTKTRVRFFRLDRWADVRFPEKRRMKLGSDISKHHKSLLAKIFYDRAEYLHGKHGVDVEVQGPHEARDGQLLIRLDLNRKEVLTLRLRNGGTQSVTLTHLFPLCRTPQFAFYNEDQELPCPLGPGECYELHVHCKTSFVGYFPATVLWELLGPGESGSEGAGTFYIARFLAAVAHSPLAAQLKPMTPFKRTRITGNPVVTNRIEEGERPDRAKGYDLELSMALGTYYPPPRLRQLLPMLLQGTSIFTAPKEIAEIKAQLETALKWRNYEVKLRLLLHLEELQMEHDIRHYDLESVPMTWDPVDQNPRLLTLEVPGVTESRPSVLRGDHLFALLSSETHQEDPITYKGFVHKVELDRVKLSFSMSLLSRFVDGLTFKVNFTFNRQPLRVQHRALELTGRWLLWPMLFPVAPRDVPLLPSDVKLKLYDRSLESNPEQLQAMRHIVTGTTRPAPYIIFGPPGTGKTVTLVEAIKQVVKHLPKAHILACAPSNSGADLLCQRLRVHLPSSIYRLLAPSRDIRMVPEDIKPCCNWDAKKGEYVFPAKKKLQEYRVLITTLITAGRLVSAQFPIDHFTHIFIDEAGHCMEPESLVAIAGLMEVKETGDPGGQLVLAGDPRQLGPVLRSPLTQKHGLGYSLLERLLTYNSLYKKGPDGYDPQFITKLLRNYRSHPTILDIPNQLYYEGELQACADVVDRERFCRWAGLPRQGFPIIFHGVMGKDEREGNSPSFFNPEEAATVTSYLKLLLAPSSKKGKARLSPRSVGVISPYRKQVEKIRYCITKLDRELRGLDDIKDLKVGSVEEFQGQERSVILISTVRSSQSFVQLDLDFNLGFLKNPKRFNVAVTRAKALLIIVGNPLLLGHDPDWKVFLEFCKENGGYTGCPFPAKLDLQQGQNLLQGLSKLSPSTSGPHSHDYLPQEREGEGGLSLQVEPEWRNEL	0.6679	–	0.6155	–

Second part, led by results:

Difference (log2), PP1 vs untreated [1, 3] [log2]	Difference (log2), PP1 vs untreated ([1]; log2 difference, pairwise comparison PP1 vs untreated, label-free quantification)	Molecule	Difference (log2), untreated vs GFP [2, 4] [log2]	Difference (log2), untreated vs GFP ([2]; log2 difference, pairwise comparison untreated vs GFP, label-free quantification)
0.6719	–	CAV1 (protein, UniProt Q03135 2-178, looked up) Caveolin-1: SGGKYVDSEGHLYTVPIREQGNIYKPNNKAMADELSEKQVYDAHTKEIDLVNRDPKHLNDDVVKIDFEDVIAEPEGTHSFDGIWKASFTTFTVTKYWFYRLLSALFGIPMALIWGIYFAILSFLHIWAVVPCIKSFLIEIQCISRVYSIYVHTVCDPLFEAVGKIFSNVRINLQKEI	0.3485	–
0.6799	–	LRRC47 (protein, UniProt Q8N1G4 2-583, looked up) Leucine-rich …: AAAAVSESWPELELAERERRRELLLTGPGLEERVRAAGGQLPPRLFTLPLLHYLEVSGCGSLRAPGPGLAQGLPQLHSLVLRRNALGPGLSPELGPLPALRVLDLSGNALEALPPGQGLGPAEPPGLPQLQSLNLSGNRLRELPADLARCAPRLQSLNLTGNCLDSFPAELFRPGALPLLSELAAADNCLRELSPDIAHLASLKTLDLSNNQLSEIPAELADCPKLKEINFRGNKLRDKRLEKMVSGCQTRSILEYLRVGGRGGGKGKGRAEGSEKEESRRKRRERKQRREGGDGEEQDVGDAGRLLLRVLHVSENPVPLTVRVSPEVRDVRPYIVGAVVRGMDLQPGNALKRFLTSQTKLHEDLCEKRTAATLATHELRAVKGPLLYCARPPQDLKIVPLGRKEAKAKELVRQLQLEAEEQRKQKKRQSVSGLHRYLHLLDGNENYPCLVDADGDVISFPPITNSEKTKVKKTTSDLFLEVTSATSLQICKDVMDALILKMAEMKKYTLENKEEGSLSDTEADAVSGQLPDPTTNPSAGKDGPSLLVVEQVRVVDLEGSLKVVYPSKADLATAPPHVTVVR	1.1154	–
–	2.257	SSR4 (protein, UniProt P51571 24-173, looked up) Translocon-associated protein …: EACLEPQITPSYYTTSDAVISTETVFIVEISLTCKNRVQNMALYADVGGKQFPVTRGQDVGRYQVSWSLDHKSAHAGTYEVRFFDEESYSLLRKAQRNNEDISIIPPLFTVSVDHRGTWNGPWVSTEVLAAAIGLVIYYLAFSAKSHIQA	–	0.4182
